In US20030087827A1 (BOARD OF SUPERVISORS OF LOUISIANA STATE UNIVERSITY AND …, published 2003):
Like-named read-outs stand apart in the source and are kept apart here. Non-standard residues stand in square brackets, D forms with d. No end group written: not given here.

Legend:
[1] = target: T1, recombinant truncated mouse furin (mouse, UniProt P23188 108-714, N-glycosylated at two of three potential sites); assay: enzyme inhibition, pERTKR-MCA hydrolysis, ratio of Ki
T1 construct: extracellular domain; Purified by ion exchange and gel permeation; also called recombinant furin; recombinant mouse furin

[2] = target: T2, proprotein convertase PACE4; assay: enzyme inhibition, pERTKR-MCA hydrolysis (fluorescence), competitive Ki
T2 construct: Partially purified preparation
T2 sequence (P29122 150-969, species assumed, looked up): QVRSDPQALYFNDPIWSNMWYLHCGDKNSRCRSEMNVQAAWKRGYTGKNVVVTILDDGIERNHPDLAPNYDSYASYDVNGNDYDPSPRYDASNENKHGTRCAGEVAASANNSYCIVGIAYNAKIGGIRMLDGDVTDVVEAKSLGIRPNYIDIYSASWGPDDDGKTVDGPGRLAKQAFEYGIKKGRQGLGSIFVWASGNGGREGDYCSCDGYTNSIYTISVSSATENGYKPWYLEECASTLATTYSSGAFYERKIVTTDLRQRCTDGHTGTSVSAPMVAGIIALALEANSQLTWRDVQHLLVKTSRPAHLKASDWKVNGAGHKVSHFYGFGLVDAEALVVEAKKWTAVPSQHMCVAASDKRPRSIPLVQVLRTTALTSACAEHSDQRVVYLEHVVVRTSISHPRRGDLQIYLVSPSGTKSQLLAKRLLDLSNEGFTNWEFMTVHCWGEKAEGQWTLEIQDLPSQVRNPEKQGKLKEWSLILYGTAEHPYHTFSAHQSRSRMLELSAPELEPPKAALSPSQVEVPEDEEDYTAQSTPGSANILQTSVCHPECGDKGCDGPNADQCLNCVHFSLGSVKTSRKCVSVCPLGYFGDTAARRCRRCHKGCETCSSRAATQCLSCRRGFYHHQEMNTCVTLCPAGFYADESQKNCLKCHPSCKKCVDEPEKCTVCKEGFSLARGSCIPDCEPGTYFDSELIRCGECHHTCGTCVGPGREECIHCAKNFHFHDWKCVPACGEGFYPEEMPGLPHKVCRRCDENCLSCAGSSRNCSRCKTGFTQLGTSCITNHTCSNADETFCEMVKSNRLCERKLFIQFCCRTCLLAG
From the text: (§1) Inhibition of Furin, PACE4, PC1 and PC2 by Different L-Polyarginine Peptides.
(§2) Each value represents the mean ± S.D. determined from three independent experiments.

[3] = target: T1, recombinant truncated mouse furin; assay: as above
From the text: as §1, §2

[4] = target: T3, proprotein convertase PC1; assay: as above
T3 construct: also called PC3
From the text: as §1, §2

[5] = target: T4, proprotein convertase PC2; assay: as above
T4 sequence (P16519 110-638, species assumed, looked up): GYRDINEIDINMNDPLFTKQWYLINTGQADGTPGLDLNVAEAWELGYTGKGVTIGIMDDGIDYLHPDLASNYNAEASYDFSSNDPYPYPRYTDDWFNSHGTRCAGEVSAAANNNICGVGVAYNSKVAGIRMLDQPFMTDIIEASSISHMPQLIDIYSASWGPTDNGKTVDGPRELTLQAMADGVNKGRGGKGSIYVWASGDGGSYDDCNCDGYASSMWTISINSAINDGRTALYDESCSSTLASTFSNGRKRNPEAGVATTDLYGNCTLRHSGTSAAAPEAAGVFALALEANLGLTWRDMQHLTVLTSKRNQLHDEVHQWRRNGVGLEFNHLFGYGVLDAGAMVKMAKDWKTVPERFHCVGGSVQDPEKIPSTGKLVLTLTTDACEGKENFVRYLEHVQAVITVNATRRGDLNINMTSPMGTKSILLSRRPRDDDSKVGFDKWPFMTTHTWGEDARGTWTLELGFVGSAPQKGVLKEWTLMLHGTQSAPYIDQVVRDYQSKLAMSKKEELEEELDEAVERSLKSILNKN
From the text: (§3) The Effect of N-Terminal Acetyl and C-Terminal Amide Groups on Inhibition. We also examined the effect of the terminal acetyl and amide modifications on inhibitory potency.
as §2

[6] = target: T1, recombinant truncated mouse furin; assay: as above; remark: listed apart in the source
From the text: as §3, §2

[7] = target: T4, proprotein convertase PC2; assay: enzyme inhibition, pERTKR-MCA hydrolysis, ratio of Ki
[8] = target: T4, proprotein convertase PC2; assay: enzyme inhibition, pERTKR-MCA hydrolysis (fluorescence), competitive Ki; remark: listed apart in the source
From the text: as §2

[9] = target: T1, recombinant truncated mouse furin; assay: as above; remark: listed apart in the source
From the text: as §2

[10] = target: T3, proprotein convertase PC1; assay: enzyme inhibition, pERTKR-MCA hydrolysis, ratio of Ki
[11] = target: T2, proprotein convertase PACE4; assay: as above

T1 sequence (P23188 108-714): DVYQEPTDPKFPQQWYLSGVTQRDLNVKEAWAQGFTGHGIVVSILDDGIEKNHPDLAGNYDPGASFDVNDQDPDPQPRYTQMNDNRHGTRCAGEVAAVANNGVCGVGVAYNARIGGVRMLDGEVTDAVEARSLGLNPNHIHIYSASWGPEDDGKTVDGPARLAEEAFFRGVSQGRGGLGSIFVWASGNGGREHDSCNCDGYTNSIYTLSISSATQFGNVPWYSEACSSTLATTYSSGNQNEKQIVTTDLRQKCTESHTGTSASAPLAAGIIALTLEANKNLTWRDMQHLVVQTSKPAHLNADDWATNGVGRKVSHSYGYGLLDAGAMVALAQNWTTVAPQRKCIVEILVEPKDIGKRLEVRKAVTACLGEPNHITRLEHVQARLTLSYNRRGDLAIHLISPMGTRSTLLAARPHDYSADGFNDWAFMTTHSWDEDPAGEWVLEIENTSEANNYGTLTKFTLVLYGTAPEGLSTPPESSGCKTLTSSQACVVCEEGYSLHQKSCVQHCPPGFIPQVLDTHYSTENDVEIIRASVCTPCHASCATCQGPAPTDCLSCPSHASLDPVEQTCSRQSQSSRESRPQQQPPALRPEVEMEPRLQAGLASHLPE
T3 sequence (P63239 111-753): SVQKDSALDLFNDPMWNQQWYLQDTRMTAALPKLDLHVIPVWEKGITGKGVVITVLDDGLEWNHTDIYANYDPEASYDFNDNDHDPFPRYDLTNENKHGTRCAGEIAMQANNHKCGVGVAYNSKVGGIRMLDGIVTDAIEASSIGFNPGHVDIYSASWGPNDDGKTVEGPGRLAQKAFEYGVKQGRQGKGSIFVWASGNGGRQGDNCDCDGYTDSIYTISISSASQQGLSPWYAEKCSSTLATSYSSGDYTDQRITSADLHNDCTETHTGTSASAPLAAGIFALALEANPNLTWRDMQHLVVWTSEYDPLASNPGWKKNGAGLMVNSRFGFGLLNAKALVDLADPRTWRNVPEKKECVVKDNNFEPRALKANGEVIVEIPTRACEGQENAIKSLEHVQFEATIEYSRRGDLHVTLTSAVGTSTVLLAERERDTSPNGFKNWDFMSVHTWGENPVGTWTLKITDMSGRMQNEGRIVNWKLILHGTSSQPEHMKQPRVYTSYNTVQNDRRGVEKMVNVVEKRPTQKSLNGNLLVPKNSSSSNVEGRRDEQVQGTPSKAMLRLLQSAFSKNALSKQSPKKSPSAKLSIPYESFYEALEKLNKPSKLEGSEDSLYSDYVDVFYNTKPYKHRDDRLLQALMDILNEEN

| Binder | Ki [2] [µM] | Ki [3] [µM] | Ki [4] [µM] | Ki [8] [µM] | Ki [9] [µM] | also measured |
| --- | --- | --- | --- | --- | --- | --- |
| H-RRRR-OH (no terminal modifications; also called tetramer) [Tetra-L-arginine] | > 200 | 6.4 | > 200 |  |  | fold increase in Ki against the pentamer (penta-L-arginine) [1]: ~5 fold |
| H-LLRVKR-OH (L-hexapeptide without terminal groups; also called unmodified LLRVKR) |  |  |  |  |  | fold increase in inhibitory potency against the amidated and acetylated peptide Ac-LLRVKR-NH2 [1]: 8 fold; Ki [5]: 3.7 µM; Ki [6]: 0.42 µM |
| RRRRRRR (no terminal modifications; also called heptamer) [Hepta-L-arginine] | 0.24 | 0.068 | 5.2 |  |  |  |
| Ac-LLRVKR-NH2 (L-hexapeptide; also called acetylated and amidated LLRVKR) [Ac-LLRVKR-NH2] |  |  |  |  |  | fold smaller Ki than the unmodified peptide LLRVKR [7]: ~4 fold; Ki [5]: 1 µM; Ki [6]: 3.4 µM |
| H-LLRVKR-NH2 (L-hexapeptide, free N-terminus) [LLRVKR-NH2] |  |  |  |  |  | Ki [5]: 2.3 µM; Ki [6]: 0.8 µM |
| Ac-LLRVKR-OH (L-hexapeptide, free C-terminus) [Ac-LLRVKR] |  |  |  |  |  | Ki [5]: 1.3 µM; Ki [6]: 3.5 µM |
| Ac-RRKRRR-NH2 [Ac-RRKRRR-NH2] |  |  |  | 461 | 1.3 |  |
| Ac-HRKRRR-NH2 (L-hexapeptide) [Ac-HRKRRR-NH2] |  |  |  | 309 | 2.1 |  |
| Ac-MRKRRR-NH2 (L-hexapeptide) [Ac-MRKRRR-NH2] |  |  |  |  | 2.3 |  |
| Ac-RHKRRR-NH2 (L-hexapeptide) [Ac-RHKRRR-NH2] |  |  |  | 152 | 3.4 |  |
| Ac-KRKRRR-NH2 (L-hexapeptide) [Ac-KRKRRR-NH2] |  |  |  | 391 | 1.6 |  |
| Ac-KHKRRR-NH2 (L-hexapeptide) [Ac-KHKRRR-NH2] |  |  |  | 280 | 5.2 |  |
| Ac-MHKRRR-NH2 (L-hexapeptide) [Ac-MHKRRR-NH2] |  |  |  | 216 | 10.3 |  |
| Ac-HHKRRR-NH2 (L-hexapeptide) [Ac-HHKRRR-NH2] |  |  |  | 235 | 13.2 |  |
| H-RRRRRR-OH (no terminal modifications; also called hexamer) [Hexa-L-arginine] | 0.52 | 0.114 | 3.9 |  |  |  |
| [dR][dR][dR][dR][dR][dR] (also called D6R; D-hexa-arginine) [Hexa-D-arginine] | 0.58 | 0.106 | 13 |  |  | fold increase in Ki against hexa-L-arginine [10]: 3 fold |
| RRRRRRRRR (no terminal modifications; also called nonamer) [Nona-L-arginine] | 0.11 | 0.042 | 12 |  |  |  |
| RRRRRRRR (no terminal modifications; also called octamer) [Octa-L-arginine] | 0.15 | 0.061 | 5.1 |  |  |  |
| RRRRR (no terminal modifications; also called pentamer; pentameric polyarginine) [Penta-L-arginine] | 0.98 | 0.99 | 14 |  |  | ratio of Ki to that of the hexamer (SEQ ID NO 14) [11]: ~2 fold; fold increase in Ki against the hexamer (hexa-L-arginine) [1]: ~10 fold |
